The values below come from article PMC11547725, “Cold-Active Lipase from the Ice Cave Psychrobacter SC65A.3 Strain, a Promising Biocatalyst for Silybin Acylation” (Molecules, 2024).

Common to all, as to test: purified protein
Assay type in all cases: biochemical, Psychrobacter sp. SC65A.3

Substrate in data set [1]: CCCCCCCCCCCCCCCCCC(=O)Oc1ccc([N+](=O)[O-])cc1
The conditions noted are these: 25 °C.

Substrate in data set [2]: CCCC(=O)Oc1ccc([N+](=O)[O-])cc1
The conditions noted are these: 25 °C, 50 mM Tris HCl pH 7.2, substrate in ethanol.

Substrate in data set [3]: CCCCCCCCCCCCCCCC(=O)Oc1ccc([N+](=O)[O-])cc1
The conditions noted are these: 25 °C, 50 mM Tris HCl pH 7.2.

B1: PSL2 (Psychrobacter sp. SC65A.3) (protein)
chain: MSNSTVLSVNTLLNKAVKTLNLMSFGQDKNPKSTDINLSDEIIDIEESALQDSREDKGLSIKEKILEHHLMTNYQPHLLHYAIKSFGCLPTPILESLIKCLDGPTSKQYLHVDAHLRLILAVNSKLKTPLQLIEMSELRKRFATDAVAMQAPKVWQQASDNLLSNLKQFHKKGDSAISWQDRTITNADDGDMTIRCYQNETSDNGFGFKKEQTSNPDETVLLFFHGGGFCIGDLNTHHEFCHAICEQTGWPVISVDYRLAPEHPAPAAVRDCISAYAWLAEHCEEFGALPSRIVLAGDSAGGGLSTLMAQQIITPNKEAWLDLGDEGQKTFDILQGLPHPMAQMPLYPVTDIETDYPSWELYGEGLLLDHADVAIFDAACLENSPLPRQHILTSPMLGDNRQVCPSYVVAAELDVLRDEAFAYANQLKSFGIAVQTHTVLGAPHGFIHFMSVHQRLGQETQHIITGFANFVREIIKTRALLSA
For orientation: Km means the concentration of substrate that gives half-maximal velocity. For orientation: kcat/Km means the second-order rate constant that governs catalysis at low substrate concentration. In the case of B1, the Km is reported as 3.70 mM in “purified protein [1]” (50 mM Tris HCl pH 7.2), 2.38 mM in “purified protein [2]” and 4.30 mM in the data set “purified protein [3]”. Moreover, the kcat/Km in the data set “purified protein [1]” (50 mM Tris HCl pH 7.2, text b41 swaps the kcat of butyrate and stearate, table value taken (fits kcat/Km)) worked out at 13.9 M⁻¹ s⁻¹; in the data set “purified protein [2]” (text b41 swaps the kcat of butyrate and stearate, table value taken (fits kcat/Km)) it was 25 M⁻¹ s⁻¹; in “purified protein [3]”, 5.75 M⁻¹ s⁻¹.
